# Measured values as given in the Human Domainome abundance scans (Beltran et al. 2025).
# ± gives the uncertainty stated by the source.
# B1: Retinoic acid receptor RXR-alpha, residues 132 to 208; numbered along this chain, P19793 (parent)
# chain: KHICAICGDRSSGKHYGVYSCEGCKGFFKRTVRKDLTYTCRDNKDCLIDKRQRNRCQYCRYQKCLAMGMKREAVQEE
# Variants of: B1
# Assay: abundance fitness (aPCA) (normalised: wild type 0, dead -1); higher = more abundant; growth selection in yeast, the domain comes from the species named
# Conditions: Homo sapiens
row,Variant,abundance fitness
1,KHICAICGDTSSGKHYGVYSCEGCKGFFKRTVRKDLTYTCRDNKDCLIDKRQRNRCQYCRYQKCLAMGMKREAVQEE [R10T],-0.024 ± 0.026
2,KHICAICGDASSGKHYGVYSCEGCKGFFKRTVRKDLTYTCRDNKDCLIDKRQRNRCQYCRYQKCLAMGMKREAVQEE [R10A],-0.139 ± 0.028
3,KHICAICGDSSSGKHYGVYSCEGCKGFFKRTVRKDLTYTCRDNKDCLIDKRQRNRCQYCRYQKCLAMGMKREAVQEE [R10S],-0.046 ± 0.025
4,KHICAICGDISSGKHYGVYSCEGCKGFFKRTVRKDLTYTCRDNKDCLIDKRQRNRCQYCRYQKCLAMGMKREAVQEE [R10I],-0.021 ± 0.031
5,KHICAICGDWSSGKHYGVYSCEGCKGFFKRTVRKDLTYTCRDNKDCLIDKRQRNRCQYCRYQKCLAMGMKREAVQEE [R10W],-0.044 ± 0.035
6,KHICAICGDLSSGKHYGVYSCEGCKGFFKRTVRKDLTYTCRDNKDCLIDKRQRNRCQYCRYQKCLAMGMKREAVQEE [R10L],-0.131 ± 0.024
7,KHICAICGDNSSGKHYGVYSCEGCKGFFKRTVRKDLTYTCRDNKDCLIDKRQRNRCQYCRYQKCLAMGMKREAVQEE [R10N],-0.024 ± 0.031
8,KHICAICGDVSSGKHYGVYSCEGCKGFFKRTVRKDLTYTCRDNKDCLIDKRQRNRCQYCRYQKCLAMGMKREAVQEE [R10V],-0.199 ± 0.028
9,KHICAICGDKSSGKHYGVYSCEGCKGFFKRTVRKDLTYTCRDNKDCLIDKRQRNRCQYCRYQKCLAMGMKREAVQEE [R10K],-0.025 ± 0.033
10,KHICAICGDGSSGKHYGVYSCEGCKGFFKRTVRKDLTYTCRDNKDCLIDKRQRNRCQYCRYQKCLAMGMKREAVQEE [R10G],-0.072 ± 0.026
11,KHICAICGDYSSGKHYGVYSCEGCKGFFKRTVRKDLTYTCRDNKDCLIDKRQRNRCQYCRYQKCLAMGMKREAVQEE [R10Y],-0.028 ± 0.029
12,KHICAICGDFSSGKHYGVYSCEGCKGFFKRTVRKDLTYTCRDNKDCLIDKRQRNRCQYCRYQKCLAMGMKREAVQEE [R10F],-0.064 ± 0.031
13,KHICAICGDDSSGKHYGVYSCEGCKGFFKRTVRKDLTYTCRDNKDCLIDKRQRNRCQYCRYQKCLAMGMKREAVQEE [R10D],-0.047 ± 0.034
14,KHICAICGDRSSFKHYGVYSCEGCKGFFKRTVRKDLTYTCRDNKDCLIDKRQRNRCQYCRYQKCLAMGMKREAVQEE [G13F],-0.114 ± 0.092
15,KHICAICGDRSSCKHYGVYSCEGCKGFFKRTVRKDLTYTCRDNKDCLIDKRQRNRCQYCRYQKCLAMGMKREAVQEE [G13C],-0.707 ± 0.16
16,KHICAICGDRSSEKHYGVYSCEGCKGFFKRTVRKDLTYTCRDNKDCLIDKRQRNRCQYCRYQKCLAMGMKREAVQEE [G13E],0.059 ± 0.044
17,KHICAICGDRSSAKHYGVYSCEGCKGFFKRTVRKDLTYTCRDNKDCLIDKRQRNRCQYCRYQKCLAMGMKREAVQEE [G13A],0.02 ± 0.035
18,KHICAICGDRSSHKHYGVYSCEGCKGFFKRTVRKDLTYTCRDNKDCLIDKRQRNRCQYCRYQKCLAMGMKREAVQEE [G13H],0.025 ± 0.081

row,Variant,abundance fitness
1,KHICAICGDRSSDKHYGVYSCEGCKGFFKRTVRKDLTYTCRDNKDCLIDKRQRNRCQYCRYQKCLAMGMKREAVQEE [G13D],0.019 ± 0.048
2,KHICAICGDRSCGKHYGVYSCEGCKGFFKRTVRKDLTYTCRDNKDCLIDKRQRNRCQYCRYQKCLAMGMKREAVQEE [S12C],-0.657 ± 0.1
3,KHICAICGDRSHGKHYGVYSCEGCKGFFKRTVRKDLTYTCRDNKDCLIDKRQRNRCQYCRYQKCLAMGMKREAVQEE [S12H],-0.131 ± 0.082
4,KHICAICGDRSAGKHYGVYSCEGCKGFFKRTVRKDLTYTCRDNKDCLIDKRQRNRCQYCRYQKCLAMGMKREAVQEE [S12A],0.044 ± 0.041
5,KHICAICGDRSDGKHYGVYSCEGCKGFFKRTVRKDLTYTCRDNKDCLIDKRQRNRCQYCRYQKCLAMGMKREAVQEE [S12D],0.001 ± 0.053
6,KHICAICGDRSTGKHYGVYSCEGCKGFFKRTVRKDLTYTCRDNKDCLIDKRQRNRCQYCRYQKCLAMGMKREAVQEE [S12T],0.114 ± 0.047
7,KHICAICGDRSEGKHYGVYSCEGCKGFFKRTVRKDLTYTCRDNKDCLIDKRQRNRCQYCRYQKCLAMGMKREAVQEE [S12E],0.101 ± 0.049
8,KHICAICGDRSFGKHYGVYSCEGCKGFFKRTVRKDLTYTCRDNKDCLIDKRQRNRCQYCRYQKCLAMGMKREAVQEE [S12F],-0.112 ± 0.082
9,KHICAICGDRSQGKHYGVYSCEGCKGFFKRTVRKDLTYTCRDNKDCLIDKRQRNRCQYCRYQKCLAMGMKREAVQEE [S12Q],0.104 ± 0.064
10,KHICAICGDRSVGKHYGVYSCEGCKGFFKRTVRKDLTYTCRDNKDCLIDKRQRNRCQYCRYQKCLAMGMKREAVQEE [S12V],0.018 ± 0.036
11,KHICAICGDRSIGKHYGVYSCEGCKGFFKRTVRKDLTYTCRDNKDCLIDKRQRNRCQYCRYQKCLAMGMKREAVQEE [S12I],-0.196 ± 0.12
12,KHICAICGDRSRGKHYGVYSCEGCKGFFKRTVRKDLTYTCRDNKDCLIDKRQRNRCQYCRYQKCLAMGMKREAVQEE [S12R],0.123 ± 0.032
13,KHICAICGDRSPGKHYGVYSCEGCKGFFKRTVRKDLTYTCRDNKDCLIDKRQRNRCQYCRYQKCLAMGMKREAVQEE [S12P],0.062 ± 0.061
14,KHICAICGDRSWGKHYGVYSCEGCKGFFKRTVRKDLTYTCRDNKDCLIDKRQRNRCQYCRYQKCLAMGMKREAVQEE [S12W],-0.072 ± 0.047
15,KHICAICGDRSLGKHYGVYSCEGCKGFFKRTVRKDLTYTCRDNKDCLIDKRQRNRCQYCRYQKCLAMGMKREAVQEE [S12L],0.019 ± 0.038
16,KHICAICGDRSNGKHYGVYSCEGCKGFFKRTVRKDLTYTCRDNKDCLIDKRQRNRCQYCRYQKCLAMGMKREAVQEE [S12N],0.091 ± 0.084
17,KHICAICGDRSGGKHYGVYSCEGCKGFFKRTVRKDLTYTCRDNKDCLIDKRQRNRCQYCRYQKCLAMGMKREAVQEE [S12G],0.072 ± 0.032
18,KHICAICGDRSKGKHYGVYSCEGCKGFFKRTVRKDLTYTCRDNKDCLIDKRQRNRCQYCRYQKCLAMGMKREAVQEE [S12K],0.137 ± 0.056
